{"source": "paper PMC10243098", "origin": "cited, not measured here", "biological_target": "histone H4 N-terminal 20-mer peptide-CoA bisubstrate inhibitor 1-20 (Homo sapiens) (UniProt P62805)"}
{"substance": "HAT1 (from UniProt O14929)", "values": [{"measurement": "Ki", "value": 1, "unit": "nM"}]}
